Read-outs that look alike come from different tables or passages of the source.
Legend:
rHuPH20 = target: T1, rHuPH20 (Homo sapiens, UniProt P38567); conditions: for retained % of the original activity / rHuPH20 activity (initial 600 U/mL): 75 mM NaCl
T1 sequence (P38567 36-482): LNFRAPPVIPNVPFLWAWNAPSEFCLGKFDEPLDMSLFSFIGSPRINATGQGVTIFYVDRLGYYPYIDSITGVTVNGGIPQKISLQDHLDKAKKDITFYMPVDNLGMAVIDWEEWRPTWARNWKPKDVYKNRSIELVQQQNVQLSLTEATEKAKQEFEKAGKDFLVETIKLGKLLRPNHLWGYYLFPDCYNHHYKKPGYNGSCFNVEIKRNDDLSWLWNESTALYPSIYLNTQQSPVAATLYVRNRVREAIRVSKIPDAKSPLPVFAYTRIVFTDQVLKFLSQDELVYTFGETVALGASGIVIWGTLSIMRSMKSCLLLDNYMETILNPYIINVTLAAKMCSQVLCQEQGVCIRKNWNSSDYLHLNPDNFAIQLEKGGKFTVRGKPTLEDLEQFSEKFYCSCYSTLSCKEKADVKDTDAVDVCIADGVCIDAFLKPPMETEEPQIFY
Description: The activity of a hyaluronan degrading enzyme can be assessed using methods well known in the art. […] A Hyaluronidase Reference Standard (USP) or National Formulary (NF) Standard Hyaluronidase solution can be used in an assay to ascertain the activity, in units, of any hyaluronidase. In one example, activity is measured using a microturbidity assay. […] The turbidity of the resulting sample is measured at 640 nm after an additional development period.

[1] = Differential scanning calorimetry, Tm of rHuPH20; assay type: physicochemical; conditions: DSC, presence of […] m-cresol
[2] = Dynamic light scattering, particle size and apparent melting temperature of rHuPH20; assay type: physicochemical; design: unit not given here
[3] = 1 week 30° C., pH 7.1, 10 mg/mL HA

B1: rHuPH20: secreted soluble recombinant human PH20 hyaluronidase expressed in CHO cells (nucleic acid encoding amino acids 36-482 of SEQ ID NO:1) (protein, listed as Homo sapiens)
chain: LNFRAPPVIPNVPFLWAWNAPSEFCLGKFDEPLDMSLFSFIGSPRINATGQGVTIFYVDRLGYYPYIDSITGVTVNGGIPQKISLQDHLDKAKKDITFYMPVDNLGMAVIDWEEWRPTWARNWKPKDVYKNRSIELVQQQNVQLSLTEATEKAKQEFEKAGKDFLVETIKLGKLLRPNHLWGYYLFPDCYNHHYKKPGYNGSCFNVEIKRNDDLSWLWNESTALYPSIYLNTQQSPVAATLYVRNRVREAIRVSKIPDAKSPLPVFAYTRIVFTDQVLKFLSQDELVYTFGETVALGASGIVIWGTLSIMRSMKSCLLLDNYMETILNPYIINVTLAAKMCSQVLCQEQGVCIRKNWNSSDYLHLNPDNFAIQLEKGGKFTVRGKPTLEDLEQFSEKFYCSCYSTLSCKEKADVKDTDAVDVCIADGVCIDAFLKPPMETEEPQIFY
modifications: precursor human PH20
In the case of B1, the rHuPH20 enzymatic activity (rHuPH20; 1 mM methionine, 30° C., one month) is reported as 525 U/mL, the rHuPH20 enzymatic activity (rHuPH20; 20 mM methionine, 30° C., one month) is reported as 522 U/mL and the “retained % of the original activity” value (rHuPH20; 1 week 30° C., pH 7.1, 1 mg/mL HA) is reported as 57%. The “% of the original rHuPH20 remained” value (rHuPH20; 1 week 30° C., pH 7.1, 5.5 mg/mL HA, 100 mM NaCl) was 68%, the “rHuPH20 activity (initial 600 U/mL)” value (rHuPH20; [3]) was 510 U/mL and the “retained % of the original activity” value (rHuPH20; [3]) was 85%. It also gave a rHuPH20 enzymatic activity (rHuPH20; 2-8° C., 5 Months, pH 7.0, 50 mM NaCl) of 494.4796, a rHuPH20 enzymatic activity (rHuPH20; 2-8° C., 5 Months, pH 7.0, 80 mM NaCl) of 575.3274 and a rHuPH20 enzymatic activity (rHuPH20; 2-8° C., 5 Months, pH 7.0, 110 mM NaCl) of 615.3546. The rHuPH20 enzymatic activity (rHuPH20; 2-8° C., 5 Months, pH 7.0, 140 mM NaCl) was 582.4274, the rHuPH20 enzymatic activity (rHuPH20; 2-8° C., 5 Months, pH 7.2, 50 mM NaCl) was 481.6035 and the rHuPH20 enzymatic activity (rHuPH20; 2-8° C., 5 Months, pH 7.2, 80 mM NaCl) was 566.2521. For the same molecule, the rHuPH20 enzymatic activity (rHuPH20; 2-8° C., 5 Months, pH 7.2, 110 mM NaCl) was 593.2027, the rHuPH20 enzymatic activity (rHuPH20; 2-8° C., 5 Months, pH 7.2, 140 mM NaCl) was 585.9948 and the rHuPH20 enzymatic activity (rHuPH20; 2-8° C., 5 Months, pH 7.4, 50 mM NaCl) was 526.6628. For the same molecule, the rHuPH20 enzymatic activity (rHuPH20; 2-8° C., 5 Months, pH 7.4, 80 mM NaCl) was 564.7769, the rHuPH20 enzymatic activity (rHuPH20; 2-8° C., 5 Months, pH 7.4, 110 mM NaCl) was 618.3856 and the rHuPH20 enzymatic activity (rHuPH20; 2-8° C., 5 Months, pH 7.4, 140 mM NaCl) was 585.9813. The rHuPH20 enzymatic activity (rHuPH20; 2-8° C., 5 Months, pH 7.6, 80 mM NaCl) was 546.4209, the rHuPH20 enzymatic activity (rHuPH20; 2-8° C., 5 Months, pH 7.6, 110 mM NaCl) was 581.6326 and the rHuPH20 enzymatic activity (rHuPH20; 2-8° C., 5 Months, pH 7.6, 140 mM NaCl) was 594.6197. It also gave a rHuPH20 enzymatic activity (rHuPH20; 2-8° C., 9 Months, pH 7.0, 50 mM NaCl) of 436.5115, a rHuPH20 enzymatic activity (rHuPH20; 2-8° C., 9 Months, pH 7.0, 80 mM NaCl) of 513.9692 and a rHuPH20 enzymatic activity (rHuPH20; 2-8° C., 9 Months, pH 7.0, 110 mM NaCl) of 551.0218. The rHuPH20 enzymatic activity (rHuPH20; 2-8° C., 9 Months, pH 7.0, 140 mM NaCl) was 554.6513, the rHuPH20 enzymatic activity (rHuPH20; 2-8° C., 9 Months, pH 7.2, 50 mM NaCl) was 451.8324 and the rHuPH20 enzymatic activity (rHuPH20; 2-8° C., 9 Months, pH 7.2, 80 mM NaCl) was 518.0740. The rHuPH20 enzymatic activity (rHuPH20; 2-8° C., 9 Months, pH 7.2, 110 mM NaCl) was 553.1847, the rHuPH20 enzymatic activity (rHuPH20; 2-8° C., 9 Months, pH 7.2, 140 mM NaCl) was 536.7846 and the rHuPH20 enzymatic activity (rHuPH20; 2-8° C., 9 Months, pH 7.4, 50 mM NaCl) was 466.1871. It also gave a rHuPH20 enzymatic activity (rHuPH20; 2-8° C., 9 Months, pH 7.4, 80 mM NaCl) of 509.9032, a rHuPH20 enzymatic activity (rHuPH20; 2-8° C., 9 Months, pH 7.4, 110 mM NaCl) of 560.4847 and a rHuPH20 enzymatic activity (rHuPH20; 2-8° C., 9 Months, pH 7.4, 140 mM NaCl) of 542.4534. For the same molecule, the rHuPH20 enzymatic activity (rHuPH20; 2-8° C., 9 Months, pH 7.6, 50 mM NaCl) was 464.8964, the rHuPH20 enzymatic activity (rHuPH20; 2-8° C., 9 Months, pH 7.6, 80 mM NaCl) was 515.3382 and the rHuPH20 enzymatic activity (rHuPH20; 2-8° C., 9 Months, pH 7.6, 110 mM NaCl) was 531.9202. The rHuPH20 enzymatic activity (rHuPH20; 2-8° C., 9 Months, pH 7.6, 140 mM NaCl) was 523.5385, the rHuPH20 enzymatic activity (rHuPH20; insulin/rHuPH20 follow up study, starting) was 650 U/mL and the “rHuPH20 activity (initial 600 U/mL)” value (rHuPH20; rHuPH20/insulin, 1 week 30° C., pH 7.1, 1 mg/mL HA) was 341 U/mL. For the same molecule, the rHuPH20 enzymatic activity (rHuPH20; regular insulin/rHuPH20, 2-8° C., 5 Months, pH 7.6, 50 mM NaCl) was 508.0571, the “reduction of Tm of rHuPH20” value [1] was “about 2 °C” and the “Average particle size (DLS)” value ([2]; 20 ° C.) was 9.48. For the same molecule, the “Average particle size (DLS)” value ([2]; 22 ° C.) was 9.19, the “Average particle size (DLS)” value ([2]; 24 ° C.) was 9.89 and the “Average particle size (DLS)” value ([2]; 26 ° C.) was 9.96. The “Average particle size (DLS)” value ([2]; 28 ° C.) was 9.27, the “Average particle size (DLS)” value ([2]; 30 ° C.) was 8.94 and the “Average particle size (DLS)” value ([2]; 32 ° C.) was 8.96. The “Average particle size (DLS)” value ([2]; 34 ° C.) was 9.42, the “Average particle size (DLS)” value ([2]; 36 ° C.) was 9.28 and the “Average particle size (DLS)” value ([2]; 38 ° C.) was 8.91. For the same molecule, the “Average particle size (DLS)” value ([2]; 40 ° C.) was 9.39, the “Average particle size (DLS)” value ([2]; 42 ° C.) was 9.72 and the “Average particle size (DLS)” value ([2]; 44 ° C.) was 11.36. The “Average particle size (DLS)” value ([2]; 46 ° C.) was 13.08, the “Average particle size (DLS)” value ([2]; 48 ° C.) was 21.35 and the “Average particle size (DLS)” value ([2]; 50 ° C.) was 22.74. For the same molecule, the “Average particle size (DLS)” value ([2]; 52 ° C.) was 28.50, the “Average particle size (DLS)” value ([2]; 54 ° C.) was 32.95 and the “Average particle size (DLS)” value ([2]; 56 ° C.) was 37.01.
